Results published in the RNAGym collection of RNA variant scans (doi:10.7554/elife.80360).

B1: HDV Ribozyme (parent)
chain: GGCCGGCAUGGUCCCAGCCUCCUCGCUGGCGCCGGCUGGGCAACAUUCCGAGGGGACCGUCCCCUCGGUAAUGGCGAAUGGGACCCA

Variants of: B1
Assay: self-cleavage, relative activity (ratio to wild type); higher = more cleavage; co-transcriptional

| Variant | self-cleavage |
| --- | --- |
| GGCCGGCAUGGUGCCAGCCUCCUCGCUGGCGCCGGCUGGGCAACAUUCCGAGGGGACCGUCUCCUCGGUAAUGGCGAAUGGGACCCA [C13G C62U] | 0.0369 |
| GGCCGGCAUGGUCCCAGCCUCCUCGAUGGCGCCGGCUGGGUAACAUUCCGAGGGGACCGUCCCCUCGGUAAUGGCGAAUGGGACCCA [C26A C41U] | 1.17 |
| GGCCGGCAUGGUCCCAGCCUCCUCGCUGGCGCCGGCUGGGCAACAUUCUGAGGGGACCGUCCCGUCGGUAAUGGCGAAUGGGACCCA [C49U C64G] | 0.684 |
| GGCCGGCAUGGUCCCAGCCUCCUCGCUGGCGCCGGCUGGGCAACAUUCCGAGUGGACCGUCCCCUCGGUAAUGGCGAAUAGGACCCA [G53U G80A] | 0.419 |
| GGCCGGCAUGGUCCCAGACUCCUCGCUGGCGCCGGCUGGGCCACAUUCCGAGGGGACCGUCCCCUCGGUAAUGGCGAAUGGGACCCA [C18A A42C] | 0.0707 |
| AGCCGGCAUGGUCCCAGCCUCCUCGCUGGCGCCGGCUGGGCAACAUUCCGAGGGGACCGUCCCCUCGGUAAUGGCGAAUGGGACCAA [G1A C86A] | 0.119 |
| GGCCGGCAUGGUCCCAACCUCCUCGCUGGCGCCGGCUGGGCAACAUUCCGAGGGGACCGUCCUCUCGGUAAUGGCGAAUGGGACCCA [G17A C63U] | 0.88 |
| GGCCGGCAUGGUCCCAGCCUCCUCGCUGGCGCCGGCUGGGCAACAUUCAGAGGGGACCGUCCGCUCGGUAAUGGCGAAUGGGACCCA [C49A C63G] | 0.256 |
| GGCCGGCAAGGUCCCAGCCUCCUCGCUGGCGCCGGGUGGGCAACAUUCCGAGGGGACCGUCCCCUCGGUAAUGGCGAAUGGGACCCA [U9A C36G] | 0.369 |
| GGCCGGCAUGGUCCCAGCCUCCUCGCUGGCGCCGGCUGGGGAACAUUCCGAGGGGACCGUACCCUCGGUAAUGGCGAAUGGGACCCA [C41G C61A] | 0.928 |
| GGCACGCAUGGUCCCAGCCUCCUCGCUGGCGCCGGCUGGGCAACAUUCCGAGGGGACCGUCCCCUCGGUAAUGGCGAAUGGGACCCA [C4A G5C] | 0.232 |
| GGCCGGCAUGGUCCCAGCCUCCUCGCUGGCGCCGGCUGGGCAACAUUCCGAGGGUACCGUCCCCUCGGUAAUGCCGAAUGGGACCCA [G55U G74C] | 0.208 |
| GGCCGGCGUGGUCCCAGCCUCCUCGCUGGCGCCGGAUGGGCAACAUUCCGAGGGGACCGUCCCCUCGGUAAUGGCGAAUGGGACCCA [A8G C36A] | 0.0386 |
| GGCCGGCAUGGUCCGAGCCUCCUCGCUGGCGCCGGCUGGGCAACAUUCCGAGGGGACCGUCCCCUCGGUAAUGACGAAUGGGACCCA [C15G G74A] | 0.13 |
| GGCCGGCAUGGUCCCAGCCUCCUCGCUGGCGCCGGCUGGGCAUCAUUCCGAGGGGACCGUCCCCUCGGUAAUGGCGAAUGGGACCUA [A43U C86U] | 0.563 |
| GUCCGGCAUGGUCCCAGCCUCCUCGCUGGCGCCGGCUGGGCAACAUUCCGAGGGGACCGUCCCCUCGGUAAUGGCGAAGGGGACCCA [G2U U79G] | 0 |
| GGCCGGCAUGGUCCCAGCCUCCUCGCUGGCGACGGCUGGGCAACACUCCGAGGGGACCGUCCCCUCGGUAAUGGCGAAUGGGACCCA [C32A U46C] | 0.128 |
| GGCCGGCAUGGUCCCAGCCUCCUCGCUGGCGCCGGCUGGGCAACGUUCCGAGGGGCCCGUCCCCUCGGUAAUGGCGAAUGGGACCCA [A45G A56C] | 1.3 |
| GGCCGGCAUGGUCCCAGCCCCCUCGCUGGCGCCGGCUGGGCAACAUUCCGAGGGGAGCGUCCCCUCGGUAAUGGCGAAUGGGACCCA [U20C C57G] | 0.0723 |
| GGCCGGCAUGGUCCCAGCCUCCUCGCUGGCGCCGGCUGGGCAACAUUCCGAGGGGACCGUCCCCUCGGUAAUGGCGAAUGGGCCCCU [A83C A87U] | 0.346 |
| GGCCGGCAUGGUCCCAGCCUCCUCGCUGGCGCCGGCUGGGCAACAUUACGAGGGGACCGUCCCCUCGGUAAUGGCGAAUUGGACCCA [C48A G80U] | 0.242 |
| GGCCGGCAUGGUCCCAGCCUCAUCGCUGGCGCCGGCUGGGCAUCAUUCCGAGGGGACCGUCCCCUCGGUAAUGGCGAAUGGGACCCA [C22A A43U] | 0.0437 |

| Variant | self-cleavage |
| --- | --- |
| GGCCGGCAUGGUCCCAGCCUCCUCGCUGGCGCCGUCUGGGCAACAUUCCGAGCGGACCGUCCCCUCGGUAAUGGCGAAUGGGACCCA [G35U G53C] | 0.478 |
| GGCCGGCAUGGUCCCAGCCUCCUCGCCGGCGUCGGCUGGGCAACAUUCCGAGGGGACCGUCCCCUCGGUAAUGGCGAAUGGGACCCA [U27C C32U] | 0.115 |
| GGCCGGCAUGGUCCCAGCCUCCUCGUUGGCGCCGGCUGGGCAACAUUCCGAGGGGACCGUCCCCUCGGUAAGGGCGAAUGGGACCCA [C26U U72G] | 0.721 |
| GGCCGGCAUGGUCCCAGCCUCCUCGCUGGCGCCGGCUGGGCAACAUUCCGAGGGGACCGUCCCCUCGGUAAUGGGCAAUGGGACCCA [C75G G76C] | 0.189 |
| GGCCGGCAUGGUCCCAGCCUCCUCGCUGGCGCCGGCUGGGCAACAUUCCGAGGGGACCGUCCCCUCGGUAACGGCGAAUGUGACCCA [U72C G81U] | 0.148 |
| GGCCGGCAUGGUCCCAGCCUCCUCGCUGGAGCCGGCUGGGCAACAUUCAGAGGGGACCGUCCCCUCGGUAAUGGCGAAUGGGACCCA [C30A C49A] | 0.405 |
| GACCGGCAUGGUCCCAGCCUCCUCGCUGGCGCCGGCUGGGCAACAUCCCGAGGGGACCGUCCCCUCGGUAAUGGCGAAUGGGACCCA [G2A U47C] | 0.0292 |
| GGCCGGCAUGGUCCCAGCCUCCUCGCUGGCGCCGGCUGGGCAACAUUACGAGGUGACCGUCCCCUCGGUAAUGGCGAAUGGGACCCA [C48A G54U] | 0.975 |
| GGCCGGCAUGGUCCCAGCCUCCUCGCUGGCGCCGGCUGGGCAACAUUCAGACGGGACCGUCCCCUCGGUAAUGGCGAAUGGGACCCA [C49A G52C] | 0.573 |
| GGCCGGCAUGGUCCCAGCCUCCUCGCUGGCGCCGGAUGGGCAACAUUCCGAGGUGACCGUCCCCUCGGUAAUGGCGAAUGGGACCCA [C36A G54U] | 0.229 |
| GGCCGGCAUGGUCCCAGCCUCCUCGCUGGCGCCUGCUGGGCAACAUUCCGAGGGGACCGUACCCUCGGUAAUGGCGAAUGGGACCCA [G34U C61A] | 0.0608 |
| GGCCGGCAUGGUCCCAGCCUCCUCGCUGGCGACGGCUGGGCAACAUUCCGAGGGGACCGUCCCCUCGGUAAUGGCGAAUGGCACCCA [C32A G82C] | 0.0396 |
| GGCCGGCAUCGUCCCAGCCUCCUCGCUGUCGCCGGCUGGGCAACAUUCCGAGGGGACCGUCCCCUCGGUAAUGGCGAAUGGGACCCA [G10C G29U] | 0.0707 |
| GGCCGGCAUGGUCCCAGCCUCCUCGCUGGCGCCGGCUGGGCAGCAUCCCGAGGGGACCGUCCCCUCGGUAAUGGCGAAUGGGACCCA [A43G U47C] | 0.748 |
| GGCCGGCAUGGUCCCAGCCUCCUCGCUGGCGCCGGCUGGGCAACAUUCCGAGGGGACCGUCCCCUCUGUAAUGGCGAAUGGGACACA [G67U C85A] | 0.831 |
| GGCCGGCAUGGUCCCAGCCUCCUCGCUGGCGCCGGCUGGGCAACAAUCCGAGGGGACCGUCCCCUCGCUAAUGGCGAAUGGGACCCA [U46A G68C] | 0.633 |
| GGCCGGCAUGGUCCCAGCCUCCUCGCUGGCCCCGGCUGGGCAACAUUCCGAGGAGACCGUCCCCUCGGUAAUGGCGAAUGGGACCCA [G31C G54A] | 0.191 |
| GGCCGGCAUGGUCCCAGCCUCCUCGCUGGCGCCGGCUGGGCAACAUUCCGAUGGGACCGUCCCCUCGGCAAUGGCGAAUGGGACCCA [G52U U69C] | 0.831 |
| GGCCGGCAUGGUCCCAGCCUCCUCGCUGGCGCCGGCUGGGCUACAUUCCGAGGGGACCGUCCCCUCGGUAAUAGCGAAUGGGACCCA [A42U G73A] | 0.403 |
| GGCCGGCAUGGUCCAAGCCUACUCGCUGGCGCCGGCUGGGCAACAUUCCGAGGGGACCGUCCCCUCGGUAAUGGCGAAUGGGACCCA [C15A C21A] | 0 |
| GGCCGGCCUGGUCCCAGCCUCCUCGCUGGCGCCGGCUGGGCAACAUUCCGAGGGGACCGUGCCCUCGGUAAUGGCGAAUGGGACCCA [A8C C61G] | 0.772 |
| GGCCGGCAUGGUCCCAGCCUCCUCGCUGGCGCCGCCUGGGCAACAUUCCGAGGGGACCGUCCCCUCGGUAAUGGCGAAUGGGGCCCA [G35C A83G] | 0.237 |

| Variant | self-cleavage |
| --- | --- |
| GGCCGGCAUGGUCCCAGCCUCCUCGCUUGCGCCGGCUGGGCAACAUUCCGAGGGGACCGUACCCUCGGUAAUGGCGAAUGGGACCCA [G28U C61A] | 0.201 |
| GGCCGGCAUGGUCCCAGCCUCCUCGCUGGCGCCGGCUAGGCAACAUUCCGAGGGCACCGUCCCCUCGGUAAUGGCGAAUGGGACCCA [G38A G55C] | 0.218 |
| GGCCGGCAUGGUCCCUGCCUCCUCGCUGGCGCCGGCUGGGCAACAAUCCGAGGGGACCGUCCCCUCGGUAAUGGCGAAUGGGACCCA [A16U U46A] | 0.489 |
| GGCCGGCAGGGUCCCAGCCGCCUCGCUGGCGCCGGCUGGGCAACAUUCCGAGGGGACCGUCCCCUCGGUAAUGGCGAAUGGGACCCA [U9G U20G] | 0 |
| GGCCGGCAUGGUCCCAGACUCCUCGCUGGCGCCGGCUGGGCAACAUUCCGAGGGGACCGUCCCCUCGGUAAUGGCGAAUGGCACCCA [C18A G82C] | 0.122 |
| CGCCGGCAUCGUCCCAGCCUCCUCGCUGGCGCCGGCUGGGCAACAUUCCGAGGGGACCGUCCCCUCGGUAAUGGCGAAUGGGACCCA [G1C G10C] | 0.095 |
| GGCCGGCAUGGUCCCAGCCUCCUCGCUGGCGCCGGCUGGGCAACAUACCCAGGGGACCGUCCCCUCGGUAAUGGCGAAUGGGACCCA [U47A G50C] | 0.855 |
| GGCCGGCAUGGUACGAGCCUCCUCGCUGGCGCCGGCUGGGCAACAUUCCGAGGGGACCGUCCCCUCGGUAAUGGCGAAUGGGACCCA [C13A C15G] | 0.142 |
| GGCCGGCAUGGUCCCAGCCUCCUUGCUGGCGCCGGCUGGGCAACAUUGCGAGGGGACCGUCCCCUCGGUAAUGGCGAAUGGGACCCA [C24U C48G] | 0.627 |
| GGCCGGCAUGGUCCCAGCCUCCUCGCUCGCGCCGGCUGGGCAACAUUCCUAGGGGACCGUCCCCUCGGUAAUGGCGAAUGGGACCCA [G28C G50U] | 0.0519 |
| GGCCGGCAUGGUCCCAGCCUGCUCGCUGGCGCCGGCAGGGCAACAUUCCGAGGGGACCGUCCCCUCGGUAAUGGCGAAUGGGACCCA [C21G U37A] | 0.119 |
| GGCCGGCAUGGUCCCAGCCUCCUCGCUGGCGCCGACUGGGCAACAUUCCGAGGGGACCGUCCCUUCGGUAAUGGCGAAUGGGACCCA [G35A C64U] | 0.475 |
| GGUCGGCAUGGUCCCAGCCUCCUCGCUGGCGCCGGCUGGGCAACAUUCCGAGGGGAACGUCCCCUCGGUAAUGGCGAAUGGGACCCA [C3U C57A] | 0.9 |
| GGCCGGCAUGGUCCCAGCCUCCUCGCUGGCGCCGGCUGGGCAACAUUCCGAGGGGACCGUCUCCUCGGUAAUGGCGAAUGGGACCCC [C62U A87C] | 1.11 |
| GGCCGGCAUGGUCCCAGCCUCCUCGCUGGCGCCGGCUGCGCAACAUUCCGAGGGGACCGUCCCCUCGGUAAUCGCGAAUGGGACCCA [G39C G73C] | 0.151 |
| GGCCGGCACGGUCCCAGCCUCCUCGCUGGCGCCGGCUGGGCAACAUUCCGAGGGGACCGUCCCCUCGGUAGUGGCGAAUGGGACCCA [U9C A71G] | 0.997 |
| GGCCGGCAUGGUCCCAGCCUCCUCGCCGGCGCCGACUGGGCAACAUUCCGAGGGGACCGUCCCCUCGGUAAUGGCGAAUGGGACCCA [U27C G35A] | 0.389 |
| GGCCGGCAUGGUCCCAGCCUCCUCGCUGGCGCCGGCUGGGCAACAUUCCGAGGGCACUGUCCCCUCGGUAAUGGCGAAUGGGACCCA [G55C C58U] | 1.07 |
| GGCCGGCAUGGUCCCAGCCUCAUCGCUGGCGCCGGCUGGGCAACAUUCCGAGGGGACCGUCCCCUCGGUAAUGGCGAAUGGGCCCCA [C22A A83C] | 0.147 |
| GGCCGGCAUGGUCCCAGUCUCCUCGCUGGCGCCGGCUGGGCAACAUUCCGAGGGGACCGUCCCCUCGGUAAUGGCGAAGGGGACCCA [C18U U79G] | 0.119 |
